The target in this assay is T1, Cerulean-ICDI1.4 (human).
T1 construct: CaV1.4 alpha1 subunit, human clone NP005174.2; ICDI domain of the distal carboxy tail; Fluorophore cloned KpnI/NotI and the channel peptide NotI/XbaI in pcDNA3, so Cerulean probably precedes the peptide; also called ICDI domain from CaV1.4; source: HEK293, transiently transfected (PEI), in live cells
Put plainly: FRET or BRET; live-cell FRET two-hybrid (3^3-FRET) in HEK293 cells on an inverted microscope; Venus-tagged peptide as acceptor, Cerulean-tagged peptide as donor; FRET ratio of each cell against free donor concentration; Tyrode's bath with 2 mM CaCl2, pH 7.4; relative Kd calibrated and converted to Ka = 1/Kd. As to conditions: partners not purified.

Consider two molecules from paper PMC8054141, “The molecular basis of the inhibition of CaV1 calcium-dependent inactivation by the distal carboxy tail” (The Journal of Biological Chemistry, 2021).

B1: Venus-PreIQ3-IQ-A1.3 F[−2]A (domain or fragment)
chain: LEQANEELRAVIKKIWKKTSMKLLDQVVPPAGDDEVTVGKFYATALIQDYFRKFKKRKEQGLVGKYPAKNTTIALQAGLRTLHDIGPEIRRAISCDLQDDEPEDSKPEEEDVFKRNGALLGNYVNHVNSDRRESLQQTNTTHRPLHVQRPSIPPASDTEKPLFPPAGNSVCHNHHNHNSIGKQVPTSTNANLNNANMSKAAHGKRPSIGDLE
modifications: F[-2]A, two residues before the canonical IQ isoleucine (inferred as 1656 on P27732). Limits approximate, as for m1. Venus tag omitted.
Regarding B1, the Ka is 5.8e+06 M⁻¹.

B2: Venus-PreIQ3-IQ-A1.3 (domain or fragment)
chain: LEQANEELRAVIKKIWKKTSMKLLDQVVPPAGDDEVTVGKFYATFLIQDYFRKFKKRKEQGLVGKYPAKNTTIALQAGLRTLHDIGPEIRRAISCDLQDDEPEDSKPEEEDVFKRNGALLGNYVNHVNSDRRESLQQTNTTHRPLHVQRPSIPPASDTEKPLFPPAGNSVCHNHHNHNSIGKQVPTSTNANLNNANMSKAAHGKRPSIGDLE
modifications: Limits approximate: about 30 residues PreIQ3 + IQ + about 150 residues A region. Position of the IQ isoleucine (I[0]) on P27732 was inferred as 1656; the paper's numbering (KPY1626, ALQ1635) implies …
B2: the Ka was 2.14e+07 M⁻¹.
